We go through 94 variants from the supplement of paper PMC10567573.

B1: TRIM55 (parent)
chain: ICPICLEMFTKPVVILPCQHNLCR
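Also: lentivirally expressed fusions sorted by FACS into six bins by GFP to DsRed ratio, PSI derived from sequencing read proportions per bin multiplied by bin number.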

This data set covers variants of B1. In words: protein stability index of a GFP-peptide fusion (GPS, HEK-293T) (PSI 1-6); higher = more stable. Conditions: c terminus: a fixed tail appended.
As to ICPICLEMWTKPVVILPCQHNLCR [F9W], the protein stability index worked out at 2.47.
Consider ICPICLEMDTKPVVILPCQHNLCR [F9D], for which the protein stability index was determined as 3.1.
The same measure for ICPICLEMCTKPVVILPCQHNLCR [F9C]: 2.81; for ICPICLEMITKPVVILPCQHNLCR [F9I]: 2.77.
As for ICPICLEMYTKPVVILPCQHNLCR [F9Y], the protein stability index turned out to be 2.18.
Take ICPICLEMVTKPVVILPCQHNLCR [F9V]: the protein stability index was found to be 2.86.
Under ICPICLEMQTKPVVILPCQHNLCR [F9Q] stands 2.49; under ICPICLEMPTKPVVILPCQHNLCR [F9P], 2.85; under ICPICLEMETKPVVILPCQHNLCR [F9E], 3.15.
The same measure for ICPICLEMLTKPVVILPCQHNLCR [F9L]: 2.47; for ICPICLEMNTKPVVILPCQHNLCR [F9N]: 2.75.
With ICPICLEMKTKPVVILPCQHNLCR [F9K], the protein stability index came to 3.63.
As for ICPICLEMMTKPVVILPCQHNLCR [F9M], the protein stability index was 2.51.
Regarding ICPICLEMSTKPVVILPCQHNLCR [F9S], the protein stability index amounted to 2.75.
On to ICPICLEMRTKPVVILPCQHNLCR [F9R], for which the protein stability index amounted to 2.18.
Turning to ICPICLEMGTKPVVILPCQHNLCR [F9G], the protein stability index stood at 2.52.
ICPICLEMHTKPVVILPCQHNLCR [F9H]: the protein stability index amounted to 2.82.
The same measure for ICPICLEMATKPVVILPCQHNLCR [F9A]: 2.64; for ICPICLEMTTKPVVILPCQHNLCR [F9T]: 3.07.
On to ICPICLEAFTKPVVILPCQHNLCR [M8A], for which the protein stability index amounted to 2.76.
Under ICPICLEGFTKPVVILPCQHNLCR [M8G] stands 2.11; under ICPICLESFTKPVVILPCQHNLCR [M8S], 2.59.
The same measure for ICPICLETFTKPVVILPCQHNLCR [M8T]: 2.73; for ICPICLEYFTKPVVILPCQHNLCR [M8Y]: 2.82; for ICPICLEKFTKPVVILPCQHNLCR [M8K]: 2.98.
With ICPICLEDFTKPVVILPCQHNLCR [M8D], the protein stability index came to 3.58.
The same measure for ICPICLECFTKPVVILPCQHNLCR [M8C]: 2.44; for ICPICLENFTKPVVILPCQHNLCR [M8N]: 1.9.
For ICPICLEWFTKPVVILPCQHNLCR [M8W], the protein stability index worked out at 3.09.
ICPICLEPFTKPVVILPCQHNLCR [M8P]: the protein stability index was determined as 2.71.
For the variant ICPICLEEFTKPVVILPCQHNLCR [M8E], the protein stability index was determined as 2.59.
For the variant ICPICLEHFTKPVVILPCQHNLCR [M8H], the protein stability index is 2.76.
As for ICPICLEVFTKPVVILPCQHNLCR [M8V], the protein stability index worked out at 2.17.
Consider ICPICLEQFTKPVVILPCQHNLCR [M8Q], for which the protein stability index worked out at 3.31.
Under ICPICLELFTKPVVILPCQHNLCR [M8L] stands 1.66; under ICPICLERFTKPVVILPCQHNLCR [M8R], 2.42; under ICPICLEIFTKPVVILPCQHNLCR [M8I], 2.63.
Consider ICPICLEFFTKPVVILPCQHNLCR [M8F], for which the protein stability index turned out to be 2.55.
For the variant IHPICLEMFTKPVVILPCQHNLCR [C2H], the protein stability index worked out at 1.96.
For ILPICLEMFTKPVVILPCQHNLCR [C2L], the protein stability index is 2.04.
As to ISPICLEMFTKPVVILPCQHNLCR [C2S], the protein stability index stood at 2.55.
As for IAPICLEMFTKPVVILPCQHNLCR [C2A], the protein stability index was found to be 2.31.
The same measure for IVPICLEMFTKPVVILPCQHNLCR [C2V]: 2.11; for ITPICLEMFTKPVVILPCQHNLCR [C2T]: 1.6.
For IPPICLEMFTKPVVILPCQHNLCR [C2P], the protein stability index is 1.93.
Regarding IIPICLEMFTKPVVILPCQHNLCR [C2I], the protein stability index is 1.56.
In the case of IFPICLEMFTKPVVILPCQHNLCR [C2F], the protein stability index was 2.02.
For the variant IQPICLEMFTKPVVILPCQHNLCR [C2Q], the protein stability index came to 1.73.
Take IYPICLEMFTKPVVILPCQHNLCR [C2Y]: the protein stability index worked out at 2.49.
Consider IEPICLEMFTKPVVILPCQHNLCR [C2E], for which the protein stability index came to 2.05.
With IRPICLEMFTKPVVILPCQHNLCR [C2R], the protein stability index stood at 2.03.
IDPICLEMFTKPVVILPCQHNLCR [C2D]: the protein stability index was found to be 1.96.
As to INPICLEMFTKPVVILPCQHNLCR [C2N], the protein stability index came to 1.78.
As for IMPICLEMFTKPVVILPCQHNLCR [C2M], the protein stability index was found to be 1.67.
On to IKPICLEMFTKPVVILPCQHNLCR [C2K], for which the protein stability index worked out at 2.15.
The same measure for IWPICLEMFTKPVVILPCQHNLCR [C2W]: 1.22.
For IGPICLEMFTKPVVILPCQHNLCR [C2G], the protein stability index turned out to be 1.77.
For the variant ICCICLEMFTKPVVILPCQHNLCR [P3C], the protein stability index was determined as 1.63.
Turning to ICFICLEMFTKPVVILPCQHNLCR [P3F], the protein stability index was found to be 1.6.
With ICLICLEMFTKPVVILPCQHNLCR [P3L], the protein stability index turned out to be 2.17.
ICGICLEMFTKPVVILPCQHNLCR [P3G]: the protein stability index is 1.26.
Under ICWICLEMFTKPVVILPCQHNLCR [P3W] stands 1.9; under ICNICLEMFTKPVVILPCQHNLCR [P3N], 2.13; under ICSICLEMFTKPVVILPCQHNLCR [P3S], 1.75.
For ICVICLEMFTKPVVILPCQHNLCR [P3V], the protein stability index came to 2.21.
For the variant ICEICLEMFTKPVVILPCQHNLCR [P3E], the protein stability index came to 2.21.
The same measure for ICDICLEMFTKPVVILPCQHNLCR [P3D]: 2.53.
For ICQICLEMFTKPVVILPCQHNLCR [P3Q], the protein stability index stood at 1.2.
The same measure for ICTICLEMFTKPVVILPCQHNLCR [P3T]: 2.45.
Under ICRICLEMFTKPVVILPCQHNLCR [P3R] stands 1.27.
ICYICLEMFTKPVVILPCQHNLCR [P3Y]: the protein stability index is 1.27.
The same measure for ICMICLEMFTKPVVILPCQHNLCR [P3M]: 2.07; for ICIICLEMFTKPVVILPCQHNLCR [P3I]: 3.07; for ICHICLEMFTKPVVILPCQHNLCR [P3H]: 2.35.
With ICAICLEMFTKPVVILPCQHNLCR [P3A], the protein stability index stood at 1.27.
The same measure for ICKICLEMFTKPVVILPCQHNLCR [P3K]: 1.66.
ICPIHLEMFTKPVVILPCQHNLCR [C5H]: the protein stability index was 1.15.
As to ICPIMLEMFTKPVVILPCQHNLCR [C5M], the protein stability index came to 2.09.
The same measure for ICPINLEMFTKPVVILPCQHNLCR [C5N]: 2.01.
As for ICPIALEMFTKPVVILPCQHNLCR [C5A], the protein stability index was found to be 1.93.
Under ICPIDLEMFTKPVVILPCQHNLCR [C5D] stands 2.05.
Regarding ICPIKLEMFTKPVVILPCQHNLCR [C5K], the protein stability index was 3.33.
As for ICPIYLEMFTKPVVILPCQHNLCR [C5Y], the protein stability index was 2.3.
For the variant ICPILLEMFTKPVVILPCQHNLCR [C5L], the protein stability index was found to be 1.72.
For the variant ICPITLEMFTKPVVILPCQHNLCR [C5T], the protein stability index amounted to 1.73.
ICPIPLEMFTKPVVILPCQHNLCR [C5P]: the protein stability index came out at 2.07.
On to ICPIRLEMFTKPVVILPCQHNLCR [C5R], for which the protein stability index was determined as 1.22.
Regarding ICPIGLEMFTKPVVILPCQHNLCR [C5G], the protein stability index came to 1.8.
With ICPIFLEMFTKPVVILPCQHNLCR [C5F], the protein stability index worked out at 1.57.
ICPIELEMFTKPVVILPCQHNLCR [C5E]: the protein stability index came to 2.28.
With ICPIVLEMFTKPVVILPCQHNLCR [C5V], the protein stability index worked out at 2.14.
For the variant ICPIWLEMFTKPVVILPCQHNLCR [C5W], the protein stability index is 1.6.
With ICPIQLEMFTKPVVILPCQHNLCR [C5Q], the protein stability index was 1.18.
Turning to ICPISLEMFTKPVVILPCQHNLCR [C5S], the protein stability index was 2.38.
